We go through 1 substance from US20210069338A1.

This assay has as its target human NPY2 receptor (HEK293/hNPY2R cells) (human) (UniProt P49146). Kind of assay: cell-based or functional assay.

Sequence of human NPY2 receptor (HEK293/hNPY2R cells) (human) (P49146 whole entry): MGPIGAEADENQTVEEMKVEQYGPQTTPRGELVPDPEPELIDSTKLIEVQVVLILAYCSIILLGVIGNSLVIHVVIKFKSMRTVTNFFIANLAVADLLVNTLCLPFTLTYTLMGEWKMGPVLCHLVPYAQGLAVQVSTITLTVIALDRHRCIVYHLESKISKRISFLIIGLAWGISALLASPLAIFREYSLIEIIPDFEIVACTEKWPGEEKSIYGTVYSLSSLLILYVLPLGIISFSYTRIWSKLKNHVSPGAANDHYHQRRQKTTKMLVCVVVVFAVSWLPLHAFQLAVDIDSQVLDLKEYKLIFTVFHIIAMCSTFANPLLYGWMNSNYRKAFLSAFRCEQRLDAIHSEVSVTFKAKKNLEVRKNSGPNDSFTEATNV
Sequence of PYY(3-36) wild-type (peptide; modification not given) (chain, as listed by the source): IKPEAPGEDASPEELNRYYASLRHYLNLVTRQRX

Substance “PYY(3-36) wild-type (peptide; modification not given)” showed an EC50 [nM], cAMP assay (inhibition of Forskolin stimulated cAMP accumulation in HEK293/hNPY2R cells), day 1 of 0.09 nM and an EC50 [nM], cAMP assay (inhibition of Forskolin stimulated cAMP accumulation in HEK293/hNPY2R cells), day 2 of 0.1 nM.
